Assay results reported in publication PMC5807052, “Robo1 Forms a Compact Dimer-of-Dimers Assembly” (Structure(London, England:1993), 2018).
Values joined by “and” are separate entries in the source; they are usually repeats but may differ in a detail not shown here. Equal values may be shown once.

B1: Robo1 ECDa (human Robo1 ectodomain, residues 61-853) (domain or fragment, UniProt Q9Y6N7-1 61-853, looked up)
chain: LRQEDFPPRIVEHPSDLIVSKGEPATLNCKAEGRPTPTIEWYKGGERVETDKDDPRSHRMLLPSGSLFFLRIVHGRKSRPDEGVYVCVARNYLGEAVSHNASLEVAILRDDFRQNPSDVMVAVGEPAVMECQPPRGHPEPTISWKKDGSPLDDKDERITIRGGKLMITYTRKSDAGKYVCVGTNMVGERESEVAELTVLERPSFVKRPSNLAVTVDDSAEFKCEARGDPVPTVRWRKDDGELPKSRYEIRDDHTLKIRKVTAGDMGSYTCVAENMVGKAEASATLTVQEPPHFVVKPRDQVVALGRTVTFQCEATGNPQPAIFWRREGSQNLLFSYQPPQSSSRFSVSQTGDLTITNVQRSDVGYYICQTLNVAGSIITKAYLEVTDVIADRPPPVIRQGPVNQTVAVDGTFVLSCVATGSPVPTILWRKDGVLVSTQDSRIKQLENGVLQIRYAKLGDTGRYTCIASTPSGEATWSAYIEVQEFGVPVQPPRPTDPNLIPSAPSKPEVTDVSRNTVTLSWQPNLNSGATPTSYIIEAFSHASGSSWQTVAENVKTETSAIKGLKPNAIYLFLVRAANAYGISDPSQISDPVKTQDVLPTSQGVDHKQVQRELGNAVLHLHNPTVLSSSSIEVHWTVDQQSQYIQGYKILYRPSGANHGESDWLVFEVRTPAKNSVVIPDLRKGVNYEIKARPFFNEFQGADSEIKFAKTLEEAPSAPPQGVTVSKNDGNGTAILVSWQPPPEDTQNGMVQEYKVWCLGNETRYHINKTVDGSTFSVVIPFLVPGIRYSVEVA
notes: Robo1, human, ectodomain construct ECDa, residues 61-853 of NP_002932; lacks the last beta-strand of Fn3; Cloned into a modified pTT3 vector that encodes a signal peptide and a C-terminal hexa-histidine tag; also called pTT3_Robo1_ECDa; source: HEK-293T, transient expression, secreted, purified (Ni-sepharose, SEC Superdex S200)
B2: Robo1 ECDb (human Robo1 whole ectodomain, residues 61-864) (domain or fragment, UniProt Q9Y6N7-1 61-864, looked up)
chain: LRQEDFPPRIVEHPSDLIVSKGEPATLNCKAEGRPTPTIEWYKGGERVETDKDDPRSHRMLLPSGSLFFLRIVHGRKSRPDEGVYVCVARNYLGEAVSHNASLEVAILRDDFRQNPSDVMVAVGEPAVMECQPPRGHPEPTISWKKDGSPLDDKDERITIRGGKLMITYTRKSDAGKYVCVGTNMVGERESEVAELTVLERPSFVKRPSNLAVTVDDSAEFKCEARGDPVPTVRWRKDDGELPKSRYEIRDDHTLKIRKVTAGDMGSYTCVAENMVGKAEASATLTVQEPPHFVVKPRDQVVALGRTVTFQCEATGNPQPAIFWRREGSQNLLFSYQPPQSSSRFSVSQTGDLTITNVQRSDVGYYICQTLNVAGSIITKAYLEVTDVIADRPPPVIRQGPVNQTVAVDGTFVLSCVATGSPVPTILWRKDGVLVSTQDSRIKQLENGVLQIRYAKLGDTGRYTCIASTPSGEATWSAYIEVQEFGVPVQPPRPTDPNLIPSAPSKPEVTDVSRNTVTLSWQPNLNSGATPTSYIIEAFSHASGSSWQTVAENVKTETSAIKGLKPNAIYLFLVRAANAYGISDPSQISDPVKTQDVLPTSQGVDHKQVQRELGNAVLHLHNPTVLSSSSIEVHWTVDQQSQYIQGYKILYRPSGANHGESDWLVFEVRTPAKNSVVIPDLRKGVNYEIKARPFFNEFQGADSEIKFAKTLEEAPSAPPQGVTVSKNDGNGTAILVSWQPPPEDTQNGMVQEYKVWCLGNETRYHINKTVDGSTFSVVIPFLVPGIRYSVEVAASTGAGSGVKS
notes: Robo1, human, whole ectodomain construct ECDb, residues 61-864 of NP_002932; Cloned into a modified pTT3 vector that encodes a signal peptide and a C-terminal hexa-histidine tag; also called pTT3_Robo1_ECDb; source: HEK-293T, transient expression, secreted, purified (Ni-sepharose, SEC Superdex S200)

Legend:
[1] = molecular target: the molecule itself; assay: SEC-MALS; Superdex S200 HR 10/30, 200 mM NaCl, 20 mM Tris pH 7.5; 55 ul of Robo1 ECDa at 2.5 mg/ml from peak 1 of the SEC
[2] = molecular target: the molecule itself; assay: SEC; Superdex S200, 200 mM NaCl, 20 mM Tris pH 7.5; self-association of Robo1 ECD
[3] = molecular target: the molecule itself; assay: negative-stain EM reconstruction; GraFix-stabilised sample (fraction 12), ammonium molybdate stain, 100 kV; 3D map with D2 symmetry, 16 Å (FSC 0.143), filtered to 20 Å

Protein	stoichiometry N [1]	stoichiometry N [2]	binding result [3]
B1	1	4 and 2	–
B2	–	–	binds
